# According to patent US20160271244A1 (DUKE UNIVERSITY, published 2016):
# B1: CH01 (antibody, V domains shown)
# VH: EVQLVESGANVVRPGGSLRLSCKASGFIFENFGFSWVRQAPGKGLQWVAGLNWNGGDTRYADSVKGRFRMSRDNSRNFVYLDMDKVGVDDTAFYYCARGTDYTIDDAGIHYQGSGTFWYFDLWGRGTLVSVSS
# VL: EIVLTQSPGTLSLSPGERATLSCRASHNVHPKYFAWYQQKPGQSPRLLIYGGSTRAAGIPGKFSGSGSGTDFTLTISRVDPEDFAVYYCQQYGGSPYTFGQGTKVEI
# notes: also called 1-27-G2; 27G2
# Legend:
# [1] = target: T1, CM 243 gp120 (HIV-1); experiment: ELISA on monomeric Env
# T1 construct: domain: gp120; also called gp120 CM243
# [2] = target: T2, A244gD+ gp120 (herpes simplex virus; HIV-1); experiment: ELISA on monomeric Env
# [3] = target: T3, HV00046 (902114 B2 140C) (HIV-1); experiment: ELISA on monomeric Env
# T3 construct: domain: gp140
# [4] = target: T2, A244gD+ gp120; experiment: SPR
# [5] = target: T4, A244gD- gp120 (HIV-1); experiment: SPR
# T4 construct: domain: gp120
# [6] = target: T5, HV00044 (6240 TZ5 140C) (HIV-1); experiment: SPR
# T5 construct: domain: gp140; also called 624008 TA5 gp140; 6240 transmitted founder Env
# [7] = target: SSB; experiment: Athena autoantigen assay, mAb 25 ug/ml
# [8] = target: Sm; experiment: Athena autoantigen assay, mAb 25 ug/ml
# [9] = target: Jo 1; experiment: Athena autoantigen assay, mAb 25 ug/ml
# [10] = target: Histone; experiment: Athena autoantigen assay, mAb 25 ug/ml
# [11] = target: SSA; experiment: Athena autoantigen assay, mAb 25 ug/ml
# [12] = target: T6, Cent B; experiment: Athena autoantigen assay, mAb 25 ug/ml
# T6 construct: also called centromere B
# [13] = target: Scl 70; experiment: Athena autoantigen assay, mAb 25 ug/ml
# [14] = target: RNP; experiment: Athena autoantigen assay, mAb 25 ug/ml
# [15] = target: T7, MN gp120 (HIV-1, UniProt P05877 32-513); experiment: ELISA
# T7 construct: domain: gp120
# [16] = target: SSB; experiment: Athena autoantigen assay, mAb 12.5 ug/ml
# [17] = target: Sm; experiment: Athena autoantigen assay, mAb 12.5 ug/ml
# [18] = target: Jo 1; experiment: Athena autoantigen assay, mAb 12.5 ug/ml
# [19] = target: Histone; experiment: Athena autoantigen assay, mAb 12.5 ug/ml
# [20] = target: SSA; experiment: Athena autoantigen assay, mAb 12.5 ug/ml
# [21] = target: T6, Cent B; experiment: Athena autoantigen assay, mAb 12.5 ug/ml
# [22] = target: Scl 70; experiment: Athena autoantigen assay, mAb 12.5 ug/ml
# [23] = target: RNP; experiment: Athena autoantigen assay, mAb 12.5 ug/ml
# [24] = target: Env (gp120) of HIV-1 isolate Q23.17 (HIV-1); experiment: cell-based or functional assay
# [25] = target: Env (gp120) of HIV-1 isolate JRCSF (HIV-1, UniProt P20871 32-848); experiment: cell-based or functional assay
# [26] = target: Env (gp120) of HIV-1 JRFL.N160K.E168K (HIV-1); experiment: cell-based or functional assay
# [27] = target: Env (gp120) of HIV-1 Q23.17.N160K (HIV-1); experiment: cell-based or functional assay
# [28] = target: Env (gp120) of HIV-1 JRFL.E168K (HIV-1); experiment: cell-based or functional assay
# [29] = target: Env (gp120) of HIV-1 isolate 7165.18 (HIV-1); experiment: cell-based or functional assay
# [30] = target: Env (gp120) of HIV-1 isolate JRFL (virus) (HIV-1); experiment: cell-based or functional assay
# [31] = target: Env (gp120) of HIV-1 7165.18.N160K (HIV-1); experiment: cell-based or functional assay
# [32] = target: SSB; experiment: Athena autoantigen assay, mAb 6.25 ug/ml
# [33] = target: Sm; experiment: Athena autoantigen assay, mAb 6.25 ug/ml
# [34] = target: Jo 1; experiment: Athena autoantigen assay, mAb 6.25 ug/ml
# [35] = target: Histone; experiment: Athena autoantigen assay, mAb 6.25 ug/ml
# [36] = target: SSA; experiment: Athena autoantigen assay, mAb 6.25 ug/ml
# [37] = target: T6, Cent B; experiment: Athena autoantigen assay, mAb 6.25 ug/ml
# [38] = target: Scl 70; experiment: Athena autoantigen assay, mAb 6.25 ug/ml
# [39] = target: RNP; experiment: Athena autoantigen assay, mAb 6.25 ug/ml
# SSB, sequence (P05455 whole entry): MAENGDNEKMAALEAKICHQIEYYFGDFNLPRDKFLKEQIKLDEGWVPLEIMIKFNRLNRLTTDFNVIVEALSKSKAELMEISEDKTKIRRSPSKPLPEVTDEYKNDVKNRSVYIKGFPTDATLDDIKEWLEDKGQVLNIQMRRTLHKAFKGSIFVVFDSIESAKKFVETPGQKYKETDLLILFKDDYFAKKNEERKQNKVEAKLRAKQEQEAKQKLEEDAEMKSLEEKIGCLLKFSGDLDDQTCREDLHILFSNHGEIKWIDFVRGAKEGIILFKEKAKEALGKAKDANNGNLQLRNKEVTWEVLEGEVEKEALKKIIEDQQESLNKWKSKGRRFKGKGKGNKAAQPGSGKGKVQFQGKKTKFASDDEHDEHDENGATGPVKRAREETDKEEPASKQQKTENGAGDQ
# T6 sequence (P07199 2-599): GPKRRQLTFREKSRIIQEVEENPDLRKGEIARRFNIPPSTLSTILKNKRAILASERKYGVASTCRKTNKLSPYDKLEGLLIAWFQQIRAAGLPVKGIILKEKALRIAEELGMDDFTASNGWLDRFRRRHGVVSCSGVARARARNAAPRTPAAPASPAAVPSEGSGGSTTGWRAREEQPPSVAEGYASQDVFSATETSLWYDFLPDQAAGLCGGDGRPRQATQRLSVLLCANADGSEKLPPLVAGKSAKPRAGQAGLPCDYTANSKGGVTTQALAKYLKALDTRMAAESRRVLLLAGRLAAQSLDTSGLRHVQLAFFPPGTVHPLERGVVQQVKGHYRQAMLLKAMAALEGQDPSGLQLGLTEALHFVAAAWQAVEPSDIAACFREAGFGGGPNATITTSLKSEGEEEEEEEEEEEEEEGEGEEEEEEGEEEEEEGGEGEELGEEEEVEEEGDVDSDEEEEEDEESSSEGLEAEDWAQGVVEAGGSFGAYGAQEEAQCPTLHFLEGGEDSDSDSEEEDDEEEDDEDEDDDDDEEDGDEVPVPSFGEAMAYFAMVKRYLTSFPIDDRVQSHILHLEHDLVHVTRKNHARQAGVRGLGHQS
# Jo 1, sequence (P12081 2-509): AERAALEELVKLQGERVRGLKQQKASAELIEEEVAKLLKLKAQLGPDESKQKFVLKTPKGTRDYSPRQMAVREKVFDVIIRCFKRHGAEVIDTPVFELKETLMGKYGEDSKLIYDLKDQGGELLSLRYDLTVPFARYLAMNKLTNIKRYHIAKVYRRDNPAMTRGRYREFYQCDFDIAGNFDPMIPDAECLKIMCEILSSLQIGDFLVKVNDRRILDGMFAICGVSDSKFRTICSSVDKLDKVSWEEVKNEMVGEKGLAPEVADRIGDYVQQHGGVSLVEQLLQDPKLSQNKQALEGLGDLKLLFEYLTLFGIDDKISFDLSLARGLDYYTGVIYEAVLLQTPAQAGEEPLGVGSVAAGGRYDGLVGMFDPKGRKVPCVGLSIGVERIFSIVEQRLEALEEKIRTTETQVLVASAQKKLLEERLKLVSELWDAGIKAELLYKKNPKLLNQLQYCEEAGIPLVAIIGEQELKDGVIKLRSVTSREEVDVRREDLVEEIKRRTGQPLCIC
binder,measurement,setting,value
B1,EC50,[1],12.7 µM
same,EC50,[2],7.8 µM
same,EC50,[3],63.2 µM
same,Kd,[4],0.0088 µM
same,Kd,[5],0.34 µM
same,Kd,[6],0.3 µM
same,Athena autoreactivity score,[7],5.5
same,Athena autoreactivity score,[8],4
same,Athena autoreactivity score,[9],2.5
same,Athena autoreactivity score,[10],17.5
same,Athena autoreactivity score,[11],6.5
same,Athena autoreactivity score,[12],14
same,Athena autoreactivity score,[13],3
same,Athena autoreactivity score,[14],5.5
same,binding result,[15],no binding
same,Athena autoreactivity score,[16],5
same,Athena autoreactivity score,[17],3
same,Athena autoreactivity score,[18],2
same,Athena autoreactivity score,[19],13.5
same,Athena autoreactivity score,[20],5
same,Athena autoreactivity score,[21],10
same,Athena autoreactivity score,[22],2
same,Athena autoreactivity score,[23],4.5
same,IC50 (virus neutralization),[24],0.014 µg/mL
same,IC80 (virus neutralization),[24],0.035 µg/mL
same,IC50 (virus neutralization),[25],0.07 µg/mL
same,IC80 (virus neutralization),[25],> 50 µg/mL
same,IC50 (virus neutralization),[26],> 50 µg/mL
same,IC80 (virus neutralization),[26],> 50 µg/mL
same,IC50 (virus neutralization),[27],> 50 µg/mL
same,IC80 (virus neutralization),[27],> 50 µg/mL
same,IC50 (virus neutralization),[28],0.044 µg/mL
same,IC80 (virus neutralization),[28],0.382 µg/mL
same,IC50 (virus neutralization),[29],5.82 µg/mL
same,IC80 (virus neutralization),[29],> 50 µg/mL
same,IC50 (virus neutralization),[30],> 50 µg/mL
same,IC80 (virus neutralization),[30],> 50 µg/mL
same,IC50 (virus neutralization),[31],> 50 µg/mL
same,IC80 (virus neutralization),[31],> 50 µg/mL
same,Athena autoreactivity score,[32],5.5
same,Athena autoreactivity score,[33],2.5
same,Athena autoreactivity score,[34],2
same,Athena autoreactivity score,[35],10
same,Athena autoreactivity score,[36],5.5
same,Athena autoreactivity score,[37],7
same,Athena autoreactivity score,[38],1.5
same,Athena autoreactivity score,[39],4
